Literature values, collected in PMC4070987.

Molecular target: alkaline protease inhibitor (Pseudomonas aeruginosa) (UniProt Q03026)
UniProt Q03026, sequence (Q03026 27-131): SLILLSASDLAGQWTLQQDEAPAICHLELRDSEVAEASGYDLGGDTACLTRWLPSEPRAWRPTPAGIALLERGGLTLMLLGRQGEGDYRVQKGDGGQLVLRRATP

alkaline protease (AP) (from UniProt Q03023)
Kd: 4 pM
